This is an account of results in patent US20080293922A1.

For the assay, the target named is β-amyloid peptide Aβ1-40 (Homo sapiens (Human)) (UniProt P05067). Nature of the assay: Dissociation of 125I-VEGF165 from resuspended Aβ1-40/VEGF co-aggregate, radioactivity in supernatant.

Vascular endothelial growth factor VEGF165, sequence (P15692 other isoform, or with tags, fused parts or gaps): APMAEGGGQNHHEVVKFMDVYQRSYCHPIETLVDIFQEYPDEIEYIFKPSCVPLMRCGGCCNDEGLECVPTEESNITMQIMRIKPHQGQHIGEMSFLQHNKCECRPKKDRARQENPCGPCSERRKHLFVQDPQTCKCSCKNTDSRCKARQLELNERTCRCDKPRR

As for “Vascular endothelial growth factor VEGF165 (from UniProt P15692 207-395) (ligand)”, the percent of VEGF released from the Aβ/VEGF complex after 3 days was less than 1.5%.
